Measurements taken from patent US5523209.

Assays:
[1] = biological target: integrin α5 β1 on CHO cells (hamster); test: binding of soluble 125I-Fn to CHO cells
[2] = biological target: integrin α5 β1 on CHO cells (hamster); test: 125I-Fn binding to CHO cells washed free of NaN3 and 2-deoxyglucose

## fibronectin (from UniProt P02751) (ligand)
[1]
  Kd: 100 nM
[2]
  percent of the high affinity binding restored after washout of the metabolic inhibitors: 75%
